11 molecules from article PMC4747905, “Structure of BRCA1-BRCT/Abraxas Complex Reveals Phosphorylation-Dependent BRCT Dimerization at DNA Damage Sites” (Molecular Cell, 2016) can be followed below.

Square brackets hold non-standard residues; d marks the D form. Ends that are not written are not given here. pS = N[C@@H](COP(=O)(O)O)C(=O)O

B1: Abraxas double phosphorylated peptide Ab2p_short (peptide)
peptide: Y[pS]R[pS]PTF
notes: Abraxas C-terminal peptide without GFGE, printed as YpSRpSPTF; source: synthesized peptide
B2: Abraxas peptide Ab2p(Y403A_short) (peptide, UniProt Q6UWZ7 403-409, looked up)
peptide: A[pS]R[pS]PTF
notes: also called Abraxas(Y403A)_short
B3: Abraxas peptide Ab2p(E402R) (peptide, UniProt Q6UWZ7 399-409, looked up)
peptide: GFGRY[pS]R[pS]PTF
notes: Abraxas C-terminal peptide, as Ab2p (GFGEYpSRpSPTF) with E402R
B4: Abraxas peptide Ab2p(Y403A) (peptide, UniProt Q6UWZ7 399-409, looked up)
peptide: GFGEA[pS]R[pS]PTF
notes: Abraxas C-terminal peptide, as Ab2p (GFGEYpSRpSPTF) with Y403A
B5: Abraxas peptide Ab1p (S404D) (peptide, UniProt Q6UWZ7 399-409, looked up)
peptide: GFGEYDR[pS]PTF
notes: Abraxas C-terminal peptide, as Ab1p (GFGEYSRpSPTF) with the phosphomimetic S404D
B6: Abraxas peptide Ab1p (S404P) (peptide, UniProt Q6UWZ7 399-409, looked up)
peptide: GFGEYPR[pS]PTF
notes: Abraxas C-terminal peptide, as Ab1p (GFGEYSRpSPTF) with S404P
B7: Abraxas peptide Ab2p (F400D) (peptide, UniProt Q6UWZ7 399-409, looked up)
peptide: GDGEY[pS]R[pS]PTF
notes: Abraxas C-terminal peptide, as Ab2p (GFGEYpSRpSPTF) with F400D
B8: BRCT-Ab2p_short complex (complex)
chain: VNKRMSMVVSGLTPEEFMLVYKFARKHHITLTNLITEETTHVVMKTDAEFVCERTLKYFLGIAGGKWVVSYFWVTQSIKERKMLNEHDFEVRGDVVNGRNHQGPKRARESQDRKIFRGLEICCYGPFTNMPTDQLEWMVQLCGASVVKELSSFTLGTGVHPIVVVQPDAWTEDNGFHAIGQMCEAPVVTREWVLDSVALYQCQELDTYLIPQIP
peptide: YSRSPTF
modifications: phosphoserine at S404 and S406
notes: as m1: BRCA1 tandem BRCT domains; limits in the Supplemental Information; as m5: Abraxas C-terminal peptide YpSRpSPTF; the 1:1 unit of m1 and m5; source: purified BRCT mixed with peptide at 1:3 molar ratio
B9: Bach1 phosphopeptide (peptide)
chain: ISRST[pS]PTFNKQTK
B10: CtIP phosphopeptide (peptide)
chain: PTRVS[pS]PVFGAT
B11: Abraxas single phosphorylated peptide Ab1p (peptide)
peptide: GFGEYSR[pS]PTF
notes: Abraxas C-terminal peptide, printed as GFGEYSRpSPTF; source: synthesized peptide

The target of one series is T1, BRCA1 BRCT domains (UniProt P38398 1646-1859).
T1 construct: BRCA1 tandem BRCT domains (BRCT1 and BRCT2); construct limits are in the Supplemental Information; also called BRCT domain only; source: purified; construction and purification are described in the Supplemental Information
As to the kind of experiment: SEC; BRCT and peptide mixed 1:3 (molar), final 1 mg/ml (about 40 μM), Superdex 75 10/300, Buffer A, 0.5 ml/min. The note with it: both partners purified. Background: In gel filtration, larger molecules generally elute earlier.
For B1, the binding result is on record as “binds”. Consider B2, for which the binding result is recorded as “binds”.

With B3, the binding result is on record as “binds”. Same read-out and setting: the same measure for B4: “binds”; for B5: “binds”. In the case of B6, the binding result was “binds”. B7: the binding result is listed as “binds”.

Another series deals with the molecule itself. Described as above.
Settings: not given
For B8, the binding result is “binds”.

The target in the next series is T1, BRCA1 BRCT domains. Nature of the series: native MS; peak fractions from gel filtration, 15 μM protein, 300 mM ammonium acetate pH 7.6, nano-electrospray. The note with it: both partners purified.
One may read the stoichiometry N as the number of molecules, sites or subunits per partner or assembly. For B9, the “stoichiometry N” value turned out to be 1. Still for that read-out and setting: the same measure for B10: 1. On the same count and under the same terms, as for B11, the figure is 1.
